Measurements as given in patent US20230331829A1 (KOREA ADVANCED INSTITUTE OF SCIENCE AND TECHNOLOGY, published 2023).

Target: T1, PROX1 protein of mouse retinal tissue (mouse, UniProt P48437 1-737)
T1 construct: Endogenous protein
T1 sequence (looked up): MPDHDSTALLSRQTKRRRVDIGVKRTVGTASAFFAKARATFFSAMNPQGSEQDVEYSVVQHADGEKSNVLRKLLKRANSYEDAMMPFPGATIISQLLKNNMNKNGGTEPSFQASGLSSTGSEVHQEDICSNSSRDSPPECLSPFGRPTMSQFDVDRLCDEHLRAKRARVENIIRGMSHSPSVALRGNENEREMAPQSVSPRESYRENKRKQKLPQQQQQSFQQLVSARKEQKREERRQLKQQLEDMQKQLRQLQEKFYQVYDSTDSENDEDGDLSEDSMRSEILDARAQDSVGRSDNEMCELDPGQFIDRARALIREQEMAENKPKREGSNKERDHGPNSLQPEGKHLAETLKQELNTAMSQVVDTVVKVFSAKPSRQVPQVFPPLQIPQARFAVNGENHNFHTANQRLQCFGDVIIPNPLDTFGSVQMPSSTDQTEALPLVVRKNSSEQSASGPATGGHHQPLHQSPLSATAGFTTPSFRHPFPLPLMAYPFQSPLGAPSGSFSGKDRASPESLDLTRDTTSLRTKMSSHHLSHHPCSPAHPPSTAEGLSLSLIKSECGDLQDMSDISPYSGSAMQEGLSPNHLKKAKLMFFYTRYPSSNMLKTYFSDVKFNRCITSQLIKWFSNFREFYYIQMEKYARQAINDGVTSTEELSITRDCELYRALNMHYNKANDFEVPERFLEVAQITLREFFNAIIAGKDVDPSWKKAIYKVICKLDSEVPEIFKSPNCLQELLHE
Assay: immunoprecipitation with Ni-NTA beads from mouse retinal tissue lysate, Western blot
Procedure: Protein samples were prepared from mice cortex tissue not expressing PROX1 protein and mouse retinal tissue expressing PROX1 protein and PROX1 neutralizing single chain antibody (anti-PROX1-scFv-His) at 4° C. for 16 hours, followed by Ni-NTA beads for 4 hours. Thereafter, the Ni-NTA bead immune complex was washed five times with a washing buffer (50 mM imidazole and protease inhibitor) and a Western blot experiment was performed to confirm the binding ability of the single chain antibody to the PROX1 protein.
Thereafter, the Ni-NTA bead immune complex was washed 5 times with a washing buffer (50 mM imidazole and protease inhibitor) and a Western blot experiment was performed to confirm the binding ability of the PROX1 neutralizing single chain antibody to the PROX1 protein (see FIG. 1).

B1: anti-PROX1-single chain Fv-His (clone #1A11) (scFv, V domains shown)
VH: AVTLDESGGGLQTPGGGLSLVCKASGFTFSSYAMNWVRQAPGKGLEWVAAIDDDGSYTGYGSAVKGRATISRDNGQSTVRLQLNNLRAEDTAIYYCAKAAGSGYCYRGANSSYTCGTYNAGDIDAWGHGTEVIVSS
VL: LTQPSSVSANLGETVEITCSGGSGSYGWYQQKSPGSAPVTLIYDNANRPSNIPSRFSGSKSGSTGTLTITGVRAEDEAVYYCGNVDSSTYVGMFGAGTTLTVL
notes: One polypeptide (scFv from a chicken antibody phage display library) with a hexa-histidine tag; used as phage periplasmic supernatant; also called anti-PROX1-scFv-His; scFv-His
B1: binds.
